Changes are numbered by the printed parent chain. Names and notes keep the numbering of the source.
B1: NavMs-pore+CTD (wild-type pore with full-length C-terminal domain of the NavMs sodium channel from Magnetococcus marinus MC-1) (domain or fragment, UniProt A0L5S6 130-274, looked up)
chain: GVGSVAALLTVVFYIAAVMATNLYGATFPEWFGDLSKSLYTLFQVMTLESWSMGIVRPVMNVHPNAWVFFIPFIMLTTFTVLNLFIGIIVDAMAITKEQEEEAKTGHHQEPISQTLLHLGDRLDRIEKQLAQNNELLQRQQPQKK
notes: Plasmid pET15b; also called unlabelled wild-type construct; wild-type pore+CTD protein; source: E. coli C41(DE3), purified (HisTrap HP, thrombin, second HisTrap HP, size exclusion) in HEGA-10
B2: NavMs-pore+CTD D250C, PROXYL spin-labelled (domain or fragment, Magnetococcus marinus MC-1, UniProt A0L5S6 130-274, looked up)
chain: B1 chain with D121C
modifications: 3-(2-iodoacetamido)-PROXYL nitroxide spin label on cysteine 250
notes: source: E. coli C41(DE3), purified (HisTrap HP, thrombin, size exclusion), spin-labelled
B3: NavMs-pore+CTD A260C, PROXYL spin-labelled (domain or fragment, Magnetococcus marinus MC-1, UniProt A0L5S6 130-274, looked up)
chain: B1 chain with A131C
modifications: 3-(2-iodoacetamido)-PROXYL nitroxide spin label on cysteine 260
notes: as for B2
B4: NavMs-pore+CTD A221C/D250C double mutant, PROXYL spin-labelled (domain or fragment, Magnetococcus marinus MC-1, UniProt A0L5S6 130-274, looked up)
chain: B1 chain with A92C, D121C
modifications: 3-(2-iodoacetamido)-PROXYL nitroxide spin labels on cysteines 221 and 250
notes: as for B2
B5: NavMs-pore+CTD R268C, PROXYL spin-labelled (domain or fragment, Magnetococcus marinus MC-1, UniProt A0L5S6 130-274, looked up)
chain: B1 chain with R139C
modifications: 3-(2-iodoacetamido)-PROXYL nitroxide spin label on cysteine 268
notes: as for B2
B6: NavMs-pore+CTD K273C, PROXYL spin-labelled (domain or fragment, Magnetococcus marinus MC-1, UniProt A0L5S6 130-274, looked up)
chain: B1 chain with K144C
modifications: 3-(2-iodoacetamido)-PROXYL nitroxide spin label on cysteine 273
notes: as for B2
B7: NavMs-pore+CTD A223C, PROXYL spin-labelled (domain or fragment, Magnetococcus marinus MC-1, UniProt A0L5S6 130-274, looked up)
chain: B1 chain with A94C
modifications: 3-(2-iodoacetamido)-PROXYL nitroxide spin label on cysteine 223
notes: as for B2
B8: NavMs-pore+CTD A232C, PROXYL spin-labelled (domain or fragment, Magnetococcus marinus MC-1, UniProt A0L5S6 130-274, looked up)
chain: B1 chain with A103C
modifications: 3-(2-iodoacetamido)-PROXYL nitroxide spin label on cysteine 232
notes: as for B2
B9: NavMs-pore+CTD I241C, PROXYL spin-labelled (domain or fragment, Magnetococcus marinus MC-1, UniProt A0L5S6 130-274, looked up)
chain: B1 chain with I112C
modifications: 3-(2-iodoacetamido)-PROXYL nitroxide spin label on cysteine 241
notes: as for B2
B10: NavMs-pore+CTD A221C, PROXYL spin-labelled (domain or fragment, Magnetococcus marinus MC-1, UniProt A0L5S6 130-274, looked up)
chain: B1 chain with A92C
modifications: 3-(2-iodoacetamido)-PROXYL nitroxide spin label on cysteine 221
notes: as for B2

Target: the molecule itself
Test: SEC; Superdex 200 10/300 GL, buffer A (10 mM Tris-HCl pH 7.5, 100 mM NaCl, 0.52% HEGA-10); detergent-solubilised protein

| Protein | stoichiometry N |
| --- | --- |
| B1 | 4 |
| B2 | 4 |
| B3 | 4 |
| B4 | 4 |
| B5 | 4 |
| B6 | 4 |
| B7 | 4 |
| B8 | 4 |
| B9 | 4 |
| B10 | 4 |

Source: publication PMC3791462, “Role of the C-terminal domain in the structure and function of tetrameric sodium channels” (Nature Communications, 2013)
